According to patent publication EP4692114A1, “CALCITONIN ANALOGUE, AND DERIVATIVE THEREOF AND USE THEREOF” (Hangzhou Sciwind Biosciences Co., Ltd., priority 2023, dated 2024):
*1 amine or outer side, *2 acyl side, *3 side chain or, on linkers, in order; H or OH if unused. Where no end group is shown, it is not given here. The star is where a group is joined. C22 diacid = O=C(O)CCCCCCCCCCCCCCCCCCCCC(=O)*; C20 diacid = O=C(O)CCCCCCCCCCCCCCCCCCC(=O)*; γGlu = O=C(O)[C@H](CCC(=O)[*:2])N[*:1]; AEEA = NCCOCCOCC(=O)O

T1: human amylin receptor (AMY3) on CHO-K1/Gal5/AMY3 cells (human, UniProt P30988 25-474; O60896 24-148)
T1 sequence (looked up) 1: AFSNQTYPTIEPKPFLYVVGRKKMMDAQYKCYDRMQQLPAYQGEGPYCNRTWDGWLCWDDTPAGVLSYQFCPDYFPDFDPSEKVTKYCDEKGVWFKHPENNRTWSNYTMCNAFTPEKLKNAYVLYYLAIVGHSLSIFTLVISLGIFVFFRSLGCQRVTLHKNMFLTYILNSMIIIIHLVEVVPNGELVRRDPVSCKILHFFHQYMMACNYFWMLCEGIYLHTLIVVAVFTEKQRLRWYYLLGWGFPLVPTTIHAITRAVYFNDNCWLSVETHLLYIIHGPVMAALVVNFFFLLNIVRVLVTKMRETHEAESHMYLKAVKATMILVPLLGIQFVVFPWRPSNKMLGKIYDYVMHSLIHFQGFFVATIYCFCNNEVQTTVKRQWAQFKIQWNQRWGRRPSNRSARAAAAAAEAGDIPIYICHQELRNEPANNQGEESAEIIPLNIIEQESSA
T1 sequence (looked up) 2: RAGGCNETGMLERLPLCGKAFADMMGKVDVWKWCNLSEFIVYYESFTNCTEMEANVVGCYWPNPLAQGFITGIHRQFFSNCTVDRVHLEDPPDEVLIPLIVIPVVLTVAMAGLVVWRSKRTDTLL


The binders below were run against T1, human amylin receptor (AMY3) on … (assay: cell-based or functional assay).

Row | Binder | EC50/nM, CRE-luciferase in amylin receptor/CRE-luc CHO cells [nM]
1 | {C20 diacid-γGlu}-ASQLSTAVLGRLSQELHRLQDYPRTDVGAESP-NH2 (SMILES CC(C)C[C@H](NC(=O)[C@H](CCCNC(=N)N)NC(=O)CNC(=O)[C@H](CC(C)C)NC(=O)[C@@H](NC(=O)[C@H](C)NC(=O)[C@@H](NC(=O)[C@H](CO)NC(=O)[C@H](CC(C)C)NC(=O)[C@H](CCC(N)=O)NC(=O)[C@H](CO)NC(=O)[C@H](C)NC(=O)CC[C@H](NC(=O)CCCCCCCCCCCCCCCCCCC(=O)O)C(=O)O)[C@@H](C)O)C(C)C)C(=O)N[C@@H](CO)C(=O)N[C@@H](CCC(N)=O)C(=O)N[C@@H](CCC(=O)O)C(=O)N[C@@H](CC(C)C)C(=O)N[C@@H](Cc1c[nH]cn1)C(=O)N[C@@H](CCCNC(=N)N)C(=O)N[C@@H](CC(C)C)C(=O)N[C@@H](CCC(N)=O)C(=O)N[C@@H](CC(=O)O)C(=O)N[C@@H](Cc1ccc(O)cc1)C(=O)N1CCC[C@H]1C(=O)N[C@@H](CCCNC(=N)N)C(=O)N[C@H](C(=O)N[C@@H](CC(=O)O)C(=O)N[C@H](C(=O)NCC(=O)N[C@@H](C)C(=O)N[C@@H](CCC(=O)O)C(=O)N[C@@H](CO)C(=O)N1CCC[C@H]1C(N)=O)C(C)C)[C@@H](C)O) [calcitonin derivative M20] | 0.017
2 | {C20 diacid}-EASQLSTAVLGRLSEELHRLQDYPRTDVGSGSP-NH2 (SMILES CC(C)C[C@H](NC(=O)[C@H](CCCNC(=N)N)NC(=O)CNC(=O)[C@H](CC(C)C)NC(=O)[C@@H](NC(=O)[C@H](C)NC(=O)[C@@H](NC(=O)[C@H](CO)NC(=O)[C@H](CC(C)C)NC(=O)[C@H](CCC(N)=O)NC(=O)[C@H](CO)NC(=O)[C@H](C)NC(=O)[C@H](CCC(=O)O)NC(=O)CCCCCCCCCCCCCCCCCCC(=O)O)[C@@H](C)O)C(C)C)C(=O)N[C@@H](CO)C(=O)N[C@@H](CCC(=O)O)C(=O)N[C@@H](CCC(=O)O)C(=O)N[C@@H](CC(C)C)C(=O)N[C@@H](Cc1c[nH]cn1)C(=O)N[C@@H](CCCNC(=N)N)C(=O)N[C@@H](CC(C)C)C(=O)N[C@@H](CCC(N)=O)C(=O)N[C@@H](CC(=O)O)C(=O)N[C@@H](Cc1ccc(O)cc1)C(=O)N1CCC[C@H]1C(=O)N[C@@H](CCCNC(=N)N)C(=O)N[C@H](C(=O)N[C@@H](CC(=O)O)C(=O)N[C@H](C(=O)NCC(=O)N[C@@H](CO)C(=O)NCC(=O)N[C@@H](CO)C(=O)N1CCC[C@H]1C(N)=O)C(C)C)[C@@H](C)O) [calcitonin derivative M52] | 0.017
3 | {C22 diacid-γGlu-AEEA-AEEA-AEEA-AEEA}-ASQLSTAVLGRLSEELHRLQDYPRTDVGSGSP-NH2 (SMILES CC(C)C[C@H](NC(=O)[C@H](CCCNC(=N)N)NC(=O)CNC(=O)[C@H](CC(C)C)NC(=O)[C@@H](NC(=O)[C@H](C)NC(=O)[C@@H](NC(=O)[C@H](CO)NC(=O)[C@H](CC(C)C)NC(=O)[C@H](CCC(N)=O)NC(=O)[C@H](CO)NC(=O)[C@H](C)NC(=O)COCCOCCNC(=O)COCCOCCNC(=O)COCCOCCNC(=O)COCCOCCNC(=O)CC[C@H](NC(=O)CCCCCCCCCCCCCCCCCCCCC(=O)O)C(=O)O)[C@@H](C)O)C(C)C)C(=O)N[C@@H](CO)C(=O)N[C@@H](CCC(=O)O)C(=O)N[C@@H](CCC(=O)O)C(=O)N[C@@H](CC(C)C)C(=O)N[C@@H](Cc1c[nH]cn1)C(=O)N[C@@H](CCCNC(=N)N)C(=O)N[C@@H](CC(C)C)C(=O)N[C@@H](CCC(N)=O)C(=O)N[C@@H](CC(=O)O)C(=O)N[C@@H](Cc1ccc(O)cc1)C(=O)N1CCC[C@H]1C(=O)N[C@@H](CCCNC(=N)N)C(=O)N[C@H](C(=O)N[C@@H](CC(=O)O)C(=O)N[C@H](C(=O)NCC(=O)N[C@@H](CO)C(=O)NCC(=O)N[C@@H](CO)C(=O)N1CCC[C@H]1C(N)=O)C(C)C)[C@@H](C)O) [calcitonin derivative M67] | 0.017
4 | {C20 diacid-γGlu}-KSQLSTDVLGRLSQELHRLQDYPRTDVGSGSP-NH2 (SMILES CC(C)C[C@H](NC(=O)[C@H](CCCNC(=N)N)NC(=O)CNC(=O)[C@H](CC(C)C)NC(=O)[C@@H](NC(=O)[C@H](CC(=O)O)NC(=O)[C@@H](NC(=O)[C@H](CO)NC(=O)[C@H](CC(C)C)NC(=O)[C@H](CCC(N)=O)NC(=O)[C@H](CO)NC(=O)[C@H](CCCCN)NC(=O)CC[C@H](NC(=O)CCCCCCCCCCCCCCCCCCC(=O)O)C(=O)O)[C@@H](C)O)C(C)C)C(=O)N[C@@H](CO)C(=O)N[C@@H](CCC(N)=O)C(=O)N[C@@H](CCC(=O)O)C(=O)N[C@@H](CC(C)C)C(=O)N[C@@H](Cc1c[nH]cn1)C(=O)N[C@@H](CCCNC(=N)N)C(=O)N[C@@H](CC(C)C)C(=O)N[C@@H](CCC(N)=O)C(=O)N[C@@H](CC(=O)O)C(=O)N[C@@H](Cc1ccc(O)cc1)C(=O)N1CCC[C@H]1C(=O)N[C@@H](CCCNC(=N)N)C(=O)N[C@H](C(=O)N[C@@H](CC(=O)O)C(=O)N[C@H](C(=O)NCC(=O)N[C@@H](CO)C(=O)NCC(=O)N[C@@H](CO)C(=O)N1CCC[C@H]1C(N)=O)C(C)C)[C@@H](C)O) [calcitonin derivative M37] | 0.052
5 | ASQLSTAVLGRLSQELHRLQDYPRTDVGSGSP-NH2 [calcitonin analogue M5] | 0.033
6 | {C20 diacid-γGlu}-ASQLSTAVLGRLSQELHRLQDLPRTDVGSGSP-NH2 (SMILES CC(C)C[C@H](NC(=O)[C@H](CCCNC(=N)N)NC(=O)CNC(=O)[C@H](CC(C)C)NC(=O)[C@@H](NC(=O)[C@H](C)NC(=O)[C@@H](NC(=O)[C@H](CO)NC(=O)[C@H](CC(C)C)NC(=O)[C@H](CCC(N)=O)NC(=O)[C@H](CO)NC(=O)[C@H](C)NC(=O)CC[C@H](NC(=O)CCCCCCCCCCCCCCCCCCC(=O)O)C(=O)O)[C@@H](C)O)C(C)C)C(=O)N[C@@H](CO)C(=O)N[C@@H](CCC(N)=O)C(=O)N[C@@H](CCC(=O)O)C(=O)N[C@@H](CC(C)C)C(=O)N[C@@H](Cc1c[nH]cn1)C(=O)N[C@@H](CCCNC(=N)N)C(=O)N[C@@H](CC(C)C)C(=O)N[C@@H](CCC(N)=O)C(=O)N[C@@H](CC(=O)O)C(=O)N[C@@H](CC(C)C)C(=O)N1CCC[C@H]1C(=O)N[C@@H](CCCNC(=N)N)C(=O)N[C@H](C(=O)N[C@@H](CC(=O)O)C(=O)N[C@H](C(=O)NCC(=O)N[C@@H](CO)C(=O)NCC(=O)N[C@@H](CO)C(=O)N1CCC[C@H]1C(N)=O)C(C)C)[C@@H](C)O) [calcitonin derivative M18] | 0.028
7 | {C20 diacid-γGlu}-RSQLSTDVLGRLSQELHRLQDYPRTDVGSGSP-NH2 (SMILES CC(C)C[C@H](NC(=O)[C@H](CCCNC(=N)N)NC(=O)CNC(=O)[C@H](CC(C)C)NC(=O)[C@@H](NC(=O)[C@H](CC(=O)O)NC(=O)[C@@H](NC(=O)[C@H](CO)NC(=O)[C@H](CC(C)C)NC(=O)[C@H](CCC(N)=O)NC(=O)[C@H](CO)NC(=O)[C@H](CCCNC(=N)N)NC(=O)CC[C@H](NC(=O)CCCCCCCCCCCCCCCCCCC(=O)O)C(=O)O)[C@@H](C)O)C(C)C)C(=O)N[C@@H](CO)C(=O)N[C@@H](CCC(N)=O)C(=O)N[C@@H](CCC(=O)O)C(=O)N[C@@H](CC(C)C)C(=O)N[C@@H](Cc1c[nH]cn1)C(=O)N[C@@H](CCCNC(=N)N)C(=O)N[C@@H](CC(C)C)C(=O)N[C@@H](CCC(N)=O)C(=O)N[C@@H](CC(=O)O)C(=O)N[C@@H](Cc1ccc(O)cc1)C(=O)N1CCC[C@H]1C(=O)N[C@@H](CCCNC(=N)N)C(=O)N[C@H](C(=O)N[C@@H](CC(=O)O)C(=O)N[C@H](C(=O)NCC(=O)N[C@@H](CO)C(=O)NCC(=O)N[C@@H](CO)C(=O)N1CCC[C@H]1C(N)=O)C(C)C)[C@@H](C)O) [calcitonin derivative M35] | 0.037
8 | {C20 diacid}-DASQLSTAVLGRLSEELHRLQDYPRTDVGSGSP-NH2 (SMILES CC(C)C[C@H](NC(=O)[C@H](CCCNC(=N)N)NC(=O)CNC(=O)[C@H](CC(C)C)NC(=O)[C@@H](NC(=O)[C@H](C)NC(=O)[C@@H](NC(=O)[C@H](CO)NC(=O)[C@H](CC(C)C)NC(=O)[C@H](CCC(N)=O)NC(=O)[C@H](CO)NC(=O)[C@H](C)NC(=O)[C@H](CC(=O)O)NC(=O)CCCCCCCCCCCCCCCCCCC(=O)O)[C@@H](C)O)C(C)C)C(=O)N[C@@H](CO)C(=O)N[C@@H](CCC(=O)O)C(=O)N[C@@H](CCC(=O)O)C(=O)N[C@@H](CC(C)C)C(=O)N[C@@H](Cc1c[nH]cn1)C(=O)N[C@@H](CCCNC(=N)N)C(=O)N[C@@H](CC(C)C)C(=O)N[C@@H](CCC(N)=O)C(=O)N[C@@H](CC(=O)O)C(=O)N[C@@H](Cc1ccc(O)cc1)C(=O)N1CCC[C@H]1C(=O)N[C@@H](CCCNC(=N)N)C(=O)N[C@H](C(=O)N[C@@H](CC(=O)O)C(=O)N[C@H](C(=O)NCC(=O)N[C@@H](CO)C(=O)NCC(=O)N[C@@H](CO)C(=O)N1CCC[C@H]1C(N)=O)C(C)C)[C@@H](C)O) [calcitonin derivative M54] | 0.017
